Holding throughout (experiment): cell-based or functional assay
In one test the target is T1, YeaW variant D221K (E. coli, UniProt P0ABR7 1-374, D221K).
T1 sequence (looked up): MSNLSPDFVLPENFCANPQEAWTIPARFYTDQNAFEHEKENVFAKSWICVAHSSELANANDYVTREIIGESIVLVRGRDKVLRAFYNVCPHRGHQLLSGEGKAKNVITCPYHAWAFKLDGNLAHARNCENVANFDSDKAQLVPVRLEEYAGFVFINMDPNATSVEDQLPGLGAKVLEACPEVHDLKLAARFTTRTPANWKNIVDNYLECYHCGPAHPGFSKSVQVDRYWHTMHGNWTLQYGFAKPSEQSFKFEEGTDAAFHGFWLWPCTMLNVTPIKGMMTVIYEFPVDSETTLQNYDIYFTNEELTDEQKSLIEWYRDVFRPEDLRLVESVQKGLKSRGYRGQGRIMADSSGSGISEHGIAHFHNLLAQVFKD

In a further test the target is T2, YeaW variant K104S (E. coli, UniProt P0ABR7 1-374, K104S).
T2 sequence (looked up): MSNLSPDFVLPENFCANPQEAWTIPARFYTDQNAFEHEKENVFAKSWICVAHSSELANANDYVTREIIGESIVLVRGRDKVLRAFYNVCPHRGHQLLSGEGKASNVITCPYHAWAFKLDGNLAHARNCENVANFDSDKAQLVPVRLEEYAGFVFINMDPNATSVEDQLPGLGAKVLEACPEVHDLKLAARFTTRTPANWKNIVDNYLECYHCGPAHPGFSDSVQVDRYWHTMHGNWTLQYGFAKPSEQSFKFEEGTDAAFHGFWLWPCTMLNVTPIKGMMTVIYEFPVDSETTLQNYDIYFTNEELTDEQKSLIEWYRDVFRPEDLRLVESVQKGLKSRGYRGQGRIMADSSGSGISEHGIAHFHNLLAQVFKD

The next test addresses T3, YeaW variant K117E (E. coli, UniProt P0ABR7 1-374, K117E).
T3 sequence (looked up): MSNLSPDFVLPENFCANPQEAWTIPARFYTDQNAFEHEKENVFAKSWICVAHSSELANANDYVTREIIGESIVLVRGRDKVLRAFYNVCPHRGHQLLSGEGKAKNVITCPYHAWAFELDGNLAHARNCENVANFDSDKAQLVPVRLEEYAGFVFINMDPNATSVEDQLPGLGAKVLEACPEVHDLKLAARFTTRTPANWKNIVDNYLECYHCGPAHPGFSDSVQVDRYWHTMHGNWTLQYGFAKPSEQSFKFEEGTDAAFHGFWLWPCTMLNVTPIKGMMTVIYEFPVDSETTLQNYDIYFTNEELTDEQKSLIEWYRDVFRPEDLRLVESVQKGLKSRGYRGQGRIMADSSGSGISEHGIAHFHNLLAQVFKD

A further test concerns the target T4, YeaW variant K117S (E. coli, UniProt P0ABR7 1-374, K117S).
T4 sequence (looked up): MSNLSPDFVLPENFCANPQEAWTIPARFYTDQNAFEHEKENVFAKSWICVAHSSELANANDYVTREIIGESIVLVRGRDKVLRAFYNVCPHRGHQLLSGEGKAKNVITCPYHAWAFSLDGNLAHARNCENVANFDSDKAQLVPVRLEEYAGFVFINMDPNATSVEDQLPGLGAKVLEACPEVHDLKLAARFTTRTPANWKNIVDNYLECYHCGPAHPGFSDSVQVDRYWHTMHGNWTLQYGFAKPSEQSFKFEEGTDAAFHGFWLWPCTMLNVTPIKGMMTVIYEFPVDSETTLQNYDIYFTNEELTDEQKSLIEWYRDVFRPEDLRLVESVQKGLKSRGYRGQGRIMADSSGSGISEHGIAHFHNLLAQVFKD

The target of a further test is T5, YeaW variant D135K (E. coli, UniProt P0ABR7 1-374, D135K).
T5 sequence (looked up): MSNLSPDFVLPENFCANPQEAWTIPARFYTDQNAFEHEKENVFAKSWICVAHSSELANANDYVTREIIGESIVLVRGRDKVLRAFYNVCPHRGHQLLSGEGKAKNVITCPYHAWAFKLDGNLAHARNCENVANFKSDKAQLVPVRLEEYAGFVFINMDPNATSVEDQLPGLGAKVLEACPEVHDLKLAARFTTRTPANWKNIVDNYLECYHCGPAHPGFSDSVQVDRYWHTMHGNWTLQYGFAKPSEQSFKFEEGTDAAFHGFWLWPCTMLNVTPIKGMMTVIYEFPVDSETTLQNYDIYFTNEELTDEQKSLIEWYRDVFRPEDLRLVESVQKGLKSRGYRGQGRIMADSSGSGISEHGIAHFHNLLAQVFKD

A further test concerns the target T6, YeaW variant K104E (E. coli, UniProt P0ABR7 1-374, K104E).
T6 sequence (looked up): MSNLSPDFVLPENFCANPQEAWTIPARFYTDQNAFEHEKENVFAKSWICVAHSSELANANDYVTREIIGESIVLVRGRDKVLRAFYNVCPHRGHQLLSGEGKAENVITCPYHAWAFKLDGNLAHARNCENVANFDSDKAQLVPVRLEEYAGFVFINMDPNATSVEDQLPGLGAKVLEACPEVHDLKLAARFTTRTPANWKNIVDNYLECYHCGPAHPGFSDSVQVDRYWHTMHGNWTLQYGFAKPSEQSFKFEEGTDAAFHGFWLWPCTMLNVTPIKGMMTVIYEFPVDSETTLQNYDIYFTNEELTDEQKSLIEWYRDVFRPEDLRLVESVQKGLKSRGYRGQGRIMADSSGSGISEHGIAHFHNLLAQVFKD

The next test addresses T7, YeaW variant K138S (E. coli, UniProt P0ABR7 1-374, K138S).
T7 sequence (looked up): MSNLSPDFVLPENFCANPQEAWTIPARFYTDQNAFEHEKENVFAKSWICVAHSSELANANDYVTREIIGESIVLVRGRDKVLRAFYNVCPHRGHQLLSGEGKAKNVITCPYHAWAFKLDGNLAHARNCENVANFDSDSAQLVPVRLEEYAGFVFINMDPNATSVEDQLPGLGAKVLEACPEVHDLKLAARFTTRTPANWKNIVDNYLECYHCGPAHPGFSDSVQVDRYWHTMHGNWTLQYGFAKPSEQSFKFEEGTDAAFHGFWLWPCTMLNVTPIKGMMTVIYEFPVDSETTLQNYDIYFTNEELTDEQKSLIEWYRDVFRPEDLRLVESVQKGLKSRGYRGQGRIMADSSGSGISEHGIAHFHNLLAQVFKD

Results on 1 molecule are retold here after article PMC9508527, “Two-component carnitine monooxygenase from Escherichia coli: functional characterization, inhibition and mutagenesis of the molecular interface” (Bioscience Reports, 2022).

B1: YeaX, reductase component of carnitine monooxygenase from E. coli (enzyme, UniProt P76254 1-321, looked up)
chain: MSDYQMFEVQVSQVEPLTEQVKRFTLVATDGKPLPAFTGGSHVIVQMSDGDNQYSNAYSLLSSPHDTSCYQIAVRLEENSRGGSRFLHQQVKVGDRLTISTPNNLFALIPSARKHLFIAGGIGITPFLSHMAELQHSDVDWQLHYCSRNPESCAFRDELVQHPQAEKVHLHHSSTGTRLELARLLADIEPGTHVYTCGPEALIEAVRSEAARLDIAADTLHFEQFAIEDKTGDAFTLVLARSGKEFVVPEEMTILQVIENNKAAKVECLCREGVCGTCETAILEGEADHRDQYFSDEERASQQSMLICCSRAKGKRLVLDL
B1: the “L-carnitine depletion activity (wild type = 100%)” value stood at 81% with YeaW variant D221K; 70% in the test with YeaW variant K104S; 63% with YeaW variant K117E; 122% in the test with YeaW variant K117S; 94% in the test with YeaW variant D135K; 6% in the test with YeaW variant K104E. The “L-carnitine depletion activity (wild type = 100%)” value with YeaW variant K138S is 96%. Besides, the “O2 depletion activity (wild type = 100%)” value with YeaW variant D221K was determined as 76%; in the test with YeaW variant K104S it was 66%; in the test with YeaW variant K117E it was 75%; with YeaW variant K117S, 109%; with YeaW variant D135K it was 97%; in the test with YeaW variant K104E, 12%. Besides, in the test with YeaW variant K138S, the “O2 depletion activity (wild type = 100%)” value turned out to be 97%.
